Data on 4 molecules can be found in patent US7985739, “Enhanced sleeping beauty transposon system and methods for using the same” (The Board of Trustees of the Leland Stanford Junior …).

For data set [1], the system named is Sleeping Beauty transposase HSB-5 K13A,K33A,T83A,S270A (salmonid (reconstructed)). In words: cell_activity. The note with it: transposition in HeLa, G418R colonies.
Data set [2] has as its system Sleeping Beauty transposase K33A K33A (salmonid (reconstructed)). In words: cell_activity. The note with it: transposition in HeLa; text says improved 400%.
The subject of data set [3] is Sleeping Beauty transposase S270A S270A (salmonid (reconstructed)). In words: cell_activity. The note with it: transposition in HeLa.
The subject of data set [4] is Sleeping Beauty transposase N123 HSB1 (mutations not given) (salmonid (reconstructed)). In words: EMSA. The note with it: no change vs WT. Background: In EMSA bound probe runs differently from free probe, usually more slowly.
Data set [5] deals with T1, Sleeping Beauty transposase N123 HSB3 (salmonid (reconstructed), K13A,K33A,T83A).
T1 chain: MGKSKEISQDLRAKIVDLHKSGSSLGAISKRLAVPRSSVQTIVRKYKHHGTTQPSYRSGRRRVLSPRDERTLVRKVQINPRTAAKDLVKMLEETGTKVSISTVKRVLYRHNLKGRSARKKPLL
As to the kind of experiment: EMSA; no change vs WT. The following applies: tags: pGADT7 TNT T7 reticulocyte lysate; label: 32P. The protocol:
(§1) Truncated (N123) derivatives of wild-type and mutant SB proteins were generated using the TNT T7 coupled reticulocyte lysate system (Promega) according to the manufacturer's instructions. Double-stranded oligonucleotides corresponding to the outer and inner direct repeats (DRs) from SB's left inverted repeat (IR) were end-labeled using [γ-^32P]ATP and PNK. Complexes were formed in a 10 μl volume containing 10 fmol labeled oligonucleotide, 6 μl of in vitro translation product, 1 μg poly(dI)(dC), and binding buffer as previously described (Ivics et al., 1997). For competitions, increasing amounts (1-500 nM) of the corresponding unlabeled oligonucleotide was added to the reaction. After a 90 minute incubation at 22° C., 5 μl of loading dye was added and each sample was resolved on a 5% polyacrylamide gel for 2-3 hours at 120 volts. Binding affinities were determined by measuring the ratio of bound vs. free radiolabeled probe using a Phosphorimager, and normalized according to the amount bound in the absence of cold competitor minus the amount bound at the highest competitor concentration.
(§2) Figure 8: FIG. 8. is a comparison of the relative binding affinities of the WT and HSB mutants for transposon binding sites. SB-N123 peptides for WT and hyperactive transposases were complexed with double-stranded radiolabeled oligos encoding the inner (top panel) or outer (bottom panel) DR sequences. Protein-DNA complexes were formed in the presence of increasing amounts of the corresponding unlabeled oligonucleotide. The percent binding was determined using a Phosphorimager and normalized according to the amount of probe bound in the absence of any competitor minus the amount of probe bound at 500 nM.

For data set [6], the target named is T2, Sleeping Beauty transposase N123 HSB2 (salmonid (reconstructed), K33A,L91A).
T2 chain: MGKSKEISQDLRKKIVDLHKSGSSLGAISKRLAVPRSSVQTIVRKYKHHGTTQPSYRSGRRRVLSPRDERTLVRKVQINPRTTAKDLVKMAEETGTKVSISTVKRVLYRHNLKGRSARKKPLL
In words: EMSA; no change vs WT. The note with it: tags: pGADT7 TNT T7 reticulocyte lysate; label: 32P. As to the method: as §1, §2

For data set [7], the target named is T3, Sleeping Beauty transposase N123 HSB4 (salmonid (reconstructed), K33A,T83A,L91A).
T3 chain: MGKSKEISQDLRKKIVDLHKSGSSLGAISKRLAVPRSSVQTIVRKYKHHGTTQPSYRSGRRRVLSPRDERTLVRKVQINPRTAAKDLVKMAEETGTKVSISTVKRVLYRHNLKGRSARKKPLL
In words: EMSA; no change vs WT. The note with it: tags: pGADT7 TNT T7 reticulocyte lysate; label: 32P. As to the method:
as §1, §2

For data set [8], the target named is T4, Sleeping Beauty transposase N123 R36A (salmonid (reconstructed), R36A).
T4 chain: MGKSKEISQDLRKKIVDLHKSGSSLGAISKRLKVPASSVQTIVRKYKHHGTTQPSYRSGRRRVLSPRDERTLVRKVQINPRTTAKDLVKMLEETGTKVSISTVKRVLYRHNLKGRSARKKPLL
As to the kind of experiment: EMSA. The note with it: tags: pGADT7 TNT T7 reticulocyte lysate; label: 32P. As to the method: as §1

Data set [9] addresses T5, Sleeping Beauty transposase N123 L25A (salmonid (reconstructed), L25A).
T5 chain: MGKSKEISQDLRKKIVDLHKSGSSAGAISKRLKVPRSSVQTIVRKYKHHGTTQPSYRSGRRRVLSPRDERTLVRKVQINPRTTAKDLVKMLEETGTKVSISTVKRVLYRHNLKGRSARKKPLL
As to the kind of experiment: EMSA. The following applies: tags: pGADT7 TNT T7 reticulocyte lysate; label: 32P. As to the method: as §1

Data set [10] addresses T6, Sleeping Beauty transposase N123 I42A (salmonid (reconstructed), I42A).
T6 chain: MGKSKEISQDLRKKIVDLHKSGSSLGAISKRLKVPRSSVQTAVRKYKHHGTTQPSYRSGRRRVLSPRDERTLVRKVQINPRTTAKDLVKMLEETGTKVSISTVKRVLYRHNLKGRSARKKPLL
In words: EMSA. The following applies: tags: pGADT7 TNT T7 reticulocyte lysate; label: 32P. The protocol: as §1

Data set [11] has as its target T7, Sleeping Beauty transposase N123 (WT) (salmonid (reconstructed)).
T7 chain: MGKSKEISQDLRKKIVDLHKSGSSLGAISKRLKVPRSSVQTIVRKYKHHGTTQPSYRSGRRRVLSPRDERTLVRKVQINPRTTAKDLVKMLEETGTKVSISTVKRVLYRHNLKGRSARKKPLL
In words: EMSA; poly(dI)(dC), 22 C; 500-fold cold oligo used as specific competitor. The note with it: tags: pGADT7 TNT T7 reticulocyte lysate; label: 32P. As to the method: as §1

Data set [12] addresses T1, Sleeping Beauty transposase N123 HSB3. As to the kind of experiment: EMSA; cold competition, 1-500 nM. The following applies: tags: pGADT7 TNT T7 reticulocyte lysate; label: 32P. As to the method:
as §1, §2

In data set [13] the target is T2, Sleeping Beauty transposase N123 HSB2. As to the kind of experiment: EMSA; cold competition, 1-500 nM. The following applies: tags: pGADT7 TNT T7 reticulocyte lysate; label: 32P. As to the method: as §1, §2
Data set [14] addresses T3, Sleeping Beauty transposase N123 HSB4. As to the kind of experiment: EMSA; cold competition, 1-500 nM. The note with it: tags: pGADT7 TNT T7 reticulocyte lysate; label: 32P. The protocol: as §1, §2

In the case of “pT/nori neomycin-marked SB transposon (full sequence not given)”, the activity is above 10 fold vs WT in data set [1], 400 % of WT in [2] and 186 % of WT in data set [3].
In data set [4], “TCCAGTGGGTCAGAAGTTTACATACACTAAGT (double strand) [inner DR of SB left IR]” yielded a binding signal (fold affinity vs WT) of 1.

B1: inner DR of SB left IR (dsDNA)
DNA 1: TCCAGTGGGTCAGAAGTTTACATACACTAAGT
DNA 2: ACTTAGTGTATGTAAACTTCTGACCCACTGGA
B1: the binding signal in [5], in [6] and in [7] was 1 fold affinity vs WT throughout. The binding result in [8], in data set [9], in data set [10] and in data set [11] was “binds” in each case.

B2: outer DR of SB left IR (dsDNA)
DNA 1: TACAGTTGAAGTCGGAAGTTTACATACACTTAGG
DNA 2: CCTAAGTGTATGTAAACTTCCGACTTCAACTGTA
B2 showed a binding signal in data set [12] of 2 fold affinity vs WT. In addition, the binding result in data set [13], in data set [14] and in data set [11] was “binds” throughout.
